Columns and labels:
[1] = target: endogenous HSP70 from the mouse Ret melanoma cell line (mouse) (UniProt Q61696); assay: cell-based or functional assay
recombinant HSP70 = recombinant HSP70 (UniProt P0DMV8); assay: ELISA, plate coated with recombinant HSP70, detection with anti-human peroxidase antibody
[2] = target: recombinant catalytic domain of human LOX (169-417) (human) (UniProt P28300); assay: ELISA, plate coated with LOX catalytic domain, detection with anti-human peroxidase antibody
Chain of recombinant catalytic domain of human LOX (169-417) (human) (P28300 169-417 limits assumed): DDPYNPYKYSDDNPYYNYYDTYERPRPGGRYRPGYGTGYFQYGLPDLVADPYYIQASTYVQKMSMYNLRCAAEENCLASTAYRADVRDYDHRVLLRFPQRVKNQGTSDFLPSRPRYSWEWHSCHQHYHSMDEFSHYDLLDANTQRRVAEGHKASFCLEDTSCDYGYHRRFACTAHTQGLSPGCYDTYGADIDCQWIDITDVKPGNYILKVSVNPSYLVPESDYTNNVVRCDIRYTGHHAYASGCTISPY

Chain of recombinant HSP70 (P0DMV8 whole entry, the tested form may be a part): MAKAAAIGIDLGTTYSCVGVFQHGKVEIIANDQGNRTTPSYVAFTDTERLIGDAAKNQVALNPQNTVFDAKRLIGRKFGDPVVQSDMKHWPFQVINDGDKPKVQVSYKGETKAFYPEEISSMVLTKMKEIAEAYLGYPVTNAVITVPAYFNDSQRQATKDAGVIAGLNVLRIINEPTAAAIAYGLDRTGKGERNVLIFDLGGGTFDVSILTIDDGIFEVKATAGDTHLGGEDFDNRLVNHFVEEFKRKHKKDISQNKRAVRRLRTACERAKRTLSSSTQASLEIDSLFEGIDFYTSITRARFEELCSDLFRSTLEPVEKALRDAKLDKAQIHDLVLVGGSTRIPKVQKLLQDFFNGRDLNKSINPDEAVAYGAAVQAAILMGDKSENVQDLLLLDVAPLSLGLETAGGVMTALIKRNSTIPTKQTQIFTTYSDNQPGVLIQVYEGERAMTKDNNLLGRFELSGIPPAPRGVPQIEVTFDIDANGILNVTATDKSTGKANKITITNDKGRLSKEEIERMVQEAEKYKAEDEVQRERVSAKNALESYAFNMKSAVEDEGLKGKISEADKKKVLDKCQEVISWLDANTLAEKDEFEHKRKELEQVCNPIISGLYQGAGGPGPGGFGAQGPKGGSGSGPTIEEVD
Chain of endogenous HSP70 from the mouse Ret melanoma cell line (mouse) (Q61696 2-641): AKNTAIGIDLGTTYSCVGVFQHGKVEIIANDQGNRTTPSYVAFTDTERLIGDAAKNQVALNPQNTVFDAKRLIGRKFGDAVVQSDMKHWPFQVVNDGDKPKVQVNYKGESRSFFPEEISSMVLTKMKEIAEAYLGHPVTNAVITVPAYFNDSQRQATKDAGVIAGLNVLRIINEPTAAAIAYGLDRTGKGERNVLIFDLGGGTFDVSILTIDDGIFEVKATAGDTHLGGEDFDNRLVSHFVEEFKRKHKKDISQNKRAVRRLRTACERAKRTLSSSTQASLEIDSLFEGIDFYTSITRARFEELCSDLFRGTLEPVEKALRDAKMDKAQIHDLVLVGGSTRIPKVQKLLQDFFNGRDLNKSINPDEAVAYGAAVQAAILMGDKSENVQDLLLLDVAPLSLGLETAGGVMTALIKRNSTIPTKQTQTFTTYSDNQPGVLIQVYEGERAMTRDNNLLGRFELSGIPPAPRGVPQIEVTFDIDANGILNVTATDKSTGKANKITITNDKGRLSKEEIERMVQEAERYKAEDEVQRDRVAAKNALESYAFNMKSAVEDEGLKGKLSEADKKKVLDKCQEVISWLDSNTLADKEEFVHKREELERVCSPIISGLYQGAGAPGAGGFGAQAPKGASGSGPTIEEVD

- ATPase activity of HSP70 in the culture media of Ret-melanoma cells (decrease against Fc) [1]: 18%
- EC50 (recombinant HSP70): 0.057 µM
- EC50 [2]: 0.058 µM
Substance: AS2 (non-glycosylated LOX-PP fused to human IgG1 Fc) (Fc fusion)
